{"source": "patent US20070031331A1", "key": {"human CD20 (human) [1]": {"molecular_target": "human CD20 (human) (UniProt P11836)", "sequence (P11836 whole entry)": "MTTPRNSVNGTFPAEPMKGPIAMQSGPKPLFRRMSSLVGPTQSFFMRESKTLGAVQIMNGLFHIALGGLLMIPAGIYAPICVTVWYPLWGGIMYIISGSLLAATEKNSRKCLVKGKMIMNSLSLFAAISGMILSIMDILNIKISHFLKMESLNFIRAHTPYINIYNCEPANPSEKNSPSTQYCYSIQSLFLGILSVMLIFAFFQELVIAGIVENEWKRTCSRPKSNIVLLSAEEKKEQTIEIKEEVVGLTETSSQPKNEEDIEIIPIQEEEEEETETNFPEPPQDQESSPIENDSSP", "assay": "Scatchard analysis, cold antibody against 125I-2H7.v16 on WIL2-S cells, n=3"}, "human CD20 (human) [2]": {"molecular_target": "human CD20 (human) (UniProt P11836)", "assay": "cell-based or functional assay"}}, "data": [{"substance": "RITUXAN® (rituximab) (antibody)", "values": [{"measurement": "Kd", "setting": "human CD20 (human) [1]", "result": 0.99, "unit": "nM"}, {"measurement": "ADCC: EC50(variant)/EC50(2H7.v16)", "setting": "human CD20 (human) [2]", "result": 5.3}, {"measurement": "ADCC: EC50(variant)/EC50(RITUXAN®)", "setting": "human CD20 (human) [2]", "result": 1}, {"measurement": "CDC: EC50(variant)/EC50(RITUXAN®)", "setting": "human CD20 (human) [2]", "result": 1}]}]}
